Experimental data taken from PMC12173559, “The Functional DPP4 Receptor Is an Indispensable Factor Mediating the Immune Performance of Mucosal Vaccines for Middle East Respiratory Syndrome” (Transboundary and Emerging Diseases, 2025).

Target: T1, MERS-CoV receptor binding domain (RBD), biotinylated (MERS-CoV, UniProt K9N5Q8)
T1 construct: also called MERS-CoV RBD; MERS-CoV spike RBD
T1 sequence: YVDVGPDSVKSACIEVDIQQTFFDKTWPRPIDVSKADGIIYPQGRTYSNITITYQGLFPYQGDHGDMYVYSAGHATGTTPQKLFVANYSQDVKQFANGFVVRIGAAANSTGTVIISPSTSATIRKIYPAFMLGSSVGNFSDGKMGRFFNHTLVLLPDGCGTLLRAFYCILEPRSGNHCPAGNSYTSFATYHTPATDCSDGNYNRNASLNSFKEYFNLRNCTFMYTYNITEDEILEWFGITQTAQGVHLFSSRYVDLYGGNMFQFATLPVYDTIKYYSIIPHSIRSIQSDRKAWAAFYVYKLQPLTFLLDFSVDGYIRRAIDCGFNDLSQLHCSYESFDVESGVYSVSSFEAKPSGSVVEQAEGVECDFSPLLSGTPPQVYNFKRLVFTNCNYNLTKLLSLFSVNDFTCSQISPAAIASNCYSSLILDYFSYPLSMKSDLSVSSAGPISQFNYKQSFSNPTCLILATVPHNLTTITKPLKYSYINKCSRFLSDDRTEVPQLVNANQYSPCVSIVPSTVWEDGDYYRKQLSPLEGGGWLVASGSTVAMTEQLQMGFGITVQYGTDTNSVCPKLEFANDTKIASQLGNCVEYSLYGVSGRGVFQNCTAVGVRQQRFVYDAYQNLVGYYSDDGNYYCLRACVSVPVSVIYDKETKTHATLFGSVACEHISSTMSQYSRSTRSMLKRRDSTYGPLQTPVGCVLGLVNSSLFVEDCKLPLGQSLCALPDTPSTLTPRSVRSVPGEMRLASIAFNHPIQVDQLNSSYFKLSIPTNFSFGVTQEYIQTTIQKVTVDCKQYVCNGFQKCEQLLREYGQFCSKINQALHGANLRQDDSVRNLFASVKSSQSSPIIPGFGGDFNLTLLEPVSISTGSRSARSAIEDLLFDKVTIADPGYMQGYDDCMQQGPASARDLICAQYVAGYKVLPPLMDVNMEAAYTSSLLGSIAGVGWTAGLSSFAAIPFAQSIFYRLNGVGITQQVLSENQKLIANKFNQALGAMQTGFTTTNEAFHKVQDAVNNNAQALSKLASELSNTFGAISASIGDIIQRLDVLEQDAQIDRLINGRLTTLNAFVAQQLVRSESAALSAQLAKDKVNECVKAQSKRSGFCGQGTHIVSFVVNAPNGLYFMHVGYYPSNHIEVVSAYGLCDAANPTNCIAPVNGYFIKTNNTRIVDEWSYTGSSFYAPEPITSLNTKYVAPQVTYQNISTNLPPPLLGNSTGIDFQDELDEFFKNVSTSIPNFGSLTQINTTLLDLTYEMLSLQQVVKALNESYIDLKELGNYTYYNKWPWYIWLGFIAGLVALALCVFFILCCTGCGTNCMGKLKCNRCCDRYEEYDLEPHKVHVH
Assay: BLI; […] (10 µg/mL) […] (SA) biosensor for 300 s; analyte in kinetic buffer (PBST, 0.1% BSA) […], association 120 s, dissociation 180 s; […]
Conditions: both partners purified

B1: human DPP4 (receptor)
chain: SRKTYTLTDYLKNTYRLKLYSLRWISDHEYLYKQENNILVFNAEYGNSSVFLENSTFDEFGHSINDYSISPDGQFILLEYNYVKQWRHSYTASYDIYDLNKRQLITEERIPNNTQWVTWSPVGHKLAYVWNNDIYVKIEPNLPSYRITWTGKEDIIYNGITDWVYEEEVFSAYSALWWSPNGTFLAYAQFNDTEVPLIEYSFYSDESLQYPKTVRVPYPKAGAVNPTVKFFVVNTDSLSSVTNATSIQITAPASMLIGDHYLCDVTWATQERISLQWLRRIQNYSVMDICDYDESSGRWNCLVARQHIEMSTTGWVGRFRPSEPHFTLDGNSFYKIISNEEGYRHICYFQIDKKDCTFITKGTWEVIGIEALTSDYLYYISNEYKGMPGGRNLYKIQLSDYTKVTCLSCELNPERCQYYSVSFSKEAKYYQLRCSGPGLPLYTLHSSVNDKGLRVLEDNSALDKMLQNVQMPSKKLDFIILNETKFWYQMILPPHFDKSKKYPLLLDVYAGPCSQKADTVFRLNWATYLASTENIIVASFDGRGSGYQGDKIMHAINRRLGTFEVEDQIEAARQFSKMGFVDNKRIAIWGWSYGGYVTSMVLGSGSGVFKCGIAVAPVSRWEYYDSVYTERYMGLPTPEDNLDHYRNSTVMSRAENFKQVEYLLIHGTADDNVHFQQSAQISKALVDVGVDFQAMWYTDEDHGIASSTAHQHIYTHMSHFIKQCFSLP
B1 gave a Kd of 55.1 nM.
